# In patent US20160185837A1 (Medimmune Limited, priority 2013, published 2016):
# T1: rat GIP receptor (rGIPr) (Rattus norvegicus, UniProt P43219)
# T1 construct: expressed in transfected cells; host or cells: HEK293s or CHO cells
# T1 sequence (P43219 19-455): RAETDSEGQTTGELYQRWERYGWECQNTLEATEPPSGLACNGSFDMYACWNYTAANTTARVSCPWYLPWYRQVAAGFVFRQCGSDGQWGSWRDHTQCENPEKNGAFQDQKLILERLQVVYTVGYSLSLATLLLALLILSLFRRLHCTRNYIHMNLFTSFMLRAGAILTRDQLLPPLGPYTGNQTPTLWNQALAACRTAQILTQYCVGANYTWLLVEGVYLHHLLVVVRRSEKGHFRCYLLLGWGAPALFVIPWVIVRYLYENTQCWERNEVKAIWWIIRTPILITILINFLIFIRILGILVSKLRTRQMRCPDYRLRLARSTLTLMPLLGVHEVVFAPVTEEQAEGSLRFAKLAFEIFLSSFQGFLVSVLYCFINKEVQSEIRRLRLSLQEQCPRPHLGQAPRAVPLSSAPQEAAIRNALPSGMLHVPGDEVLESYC
# T2: rat GLP-1 receptor (rGLP-1r) (Rattus norvegicus, UniProt P32301)
# T2 construct: expressed in transfected cells; host or cells: HEK293s or CHO cells
# T2 sequence (P32301 22-463): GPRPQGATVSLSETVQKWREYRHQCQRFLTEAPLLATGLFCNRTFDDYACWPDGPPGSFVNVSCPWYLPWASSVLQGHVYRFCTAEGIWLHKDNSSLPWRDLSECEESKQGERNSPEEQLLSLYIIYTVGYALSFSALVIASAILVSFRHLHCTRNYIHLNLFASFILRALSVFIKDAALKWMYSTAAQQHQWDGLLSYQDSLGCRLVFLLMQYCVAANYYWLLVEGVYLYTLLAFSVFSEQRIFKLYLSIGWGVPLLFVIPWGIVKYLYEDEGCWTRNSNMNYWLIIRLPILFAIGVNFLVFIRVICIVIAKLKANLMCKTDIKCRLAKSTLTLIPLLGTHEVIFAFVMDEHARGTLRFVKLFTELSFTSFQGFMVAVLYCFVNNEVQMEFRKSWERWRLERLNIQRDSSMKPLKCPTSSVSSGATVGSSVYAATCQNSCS
# T3: mouse GIP receptor (mGIPr) (Mus musculus, UniProt Q0P543)
# T3 construct: expressed in transfected cells; host or cells: HEK293s or CHO cells
# T3 sequence (Q0P543 19-460): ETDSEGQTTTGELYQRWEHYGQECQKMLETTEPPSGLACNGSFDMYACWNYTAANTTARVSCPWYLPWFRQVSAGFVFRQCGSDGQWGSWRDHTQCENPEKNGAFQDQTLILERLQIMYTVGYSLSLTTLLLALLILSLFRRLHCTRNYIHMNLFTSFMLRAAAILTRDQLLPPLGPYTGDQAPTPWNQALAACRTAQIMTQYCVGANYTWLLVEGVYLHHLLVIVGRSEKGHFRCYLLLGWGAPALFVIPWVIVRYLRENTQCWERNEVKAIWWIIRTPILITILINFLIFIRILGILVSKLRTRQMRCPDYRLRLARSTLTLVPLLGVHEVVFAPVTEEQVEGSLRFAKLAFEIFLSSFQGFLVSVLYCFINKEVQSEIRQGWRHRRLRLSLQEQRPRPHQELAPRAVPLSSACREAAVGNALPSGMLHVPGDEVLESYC
# T4: mouse GLP-1 receptor (mGLP-1r) (Mus musculus, UniProt O35659)
# T4 construct: expressed in transfected cells; host or cells: HEK293s or CHO cells
# T4 sequence (O35659 22-463): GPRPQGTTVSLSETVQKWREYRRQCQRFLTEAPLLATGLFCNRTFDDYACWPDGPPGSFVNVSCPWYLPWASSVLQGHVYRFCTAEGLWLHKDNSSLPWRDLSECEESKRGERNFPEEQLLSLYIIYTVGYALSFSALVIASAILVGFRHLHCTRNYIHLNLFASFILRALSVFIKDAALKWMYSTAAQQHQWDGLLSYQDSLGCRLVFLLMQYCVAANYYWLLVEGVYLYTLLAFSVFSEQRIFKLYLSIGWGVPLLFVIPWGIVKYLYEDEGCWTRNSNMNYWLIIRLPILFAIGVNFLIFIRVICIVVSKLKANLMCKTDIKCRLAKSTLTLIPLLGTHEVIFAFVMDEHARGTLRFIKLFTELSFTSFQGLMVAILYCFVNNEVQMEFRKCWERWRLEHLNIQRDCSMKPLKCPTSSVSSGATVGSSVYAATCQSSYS
# T5: human GIP receptor (hGIPr) (Homo sapiens, UniProt P48546)
# T5 construct: expressed in transfected cells
# T5 sequence (P48546 22-466): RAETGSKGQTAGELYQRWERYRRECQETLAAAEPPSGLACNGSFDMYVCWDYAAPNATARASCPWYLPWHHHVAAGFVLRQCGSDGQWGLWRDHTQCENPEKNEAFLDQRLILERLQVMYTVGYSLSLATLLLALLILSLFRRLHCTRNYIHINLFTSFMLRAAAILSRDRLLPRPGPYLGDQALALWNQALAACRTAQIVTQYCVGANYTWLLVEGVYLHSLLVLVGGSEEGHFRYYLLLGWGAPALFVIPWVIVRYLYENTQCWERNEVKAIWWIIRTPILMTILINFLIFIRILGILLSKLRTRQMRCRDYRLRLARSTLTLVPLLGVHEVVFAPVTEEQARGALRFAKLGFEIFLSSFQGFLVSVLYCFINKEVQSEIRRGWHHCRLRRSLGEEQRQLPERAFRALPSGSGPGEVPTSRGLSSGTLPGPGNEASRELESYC
# Key:
# Type in all cases: cell-based
# [1] = target: T6, human glucagon receptor (GCGr) (Homo sapiens, UniProt P47871); assay: BSA-cAMP assay, cells expressing human glucagon receptor; conditions: Batch 1, read-out: hGCGr cAMP activity EC50
# T6 construct: expressed in transfected cells; host or cells: HEK293s or CHO cells
# T6 sequence (P47871 26-477): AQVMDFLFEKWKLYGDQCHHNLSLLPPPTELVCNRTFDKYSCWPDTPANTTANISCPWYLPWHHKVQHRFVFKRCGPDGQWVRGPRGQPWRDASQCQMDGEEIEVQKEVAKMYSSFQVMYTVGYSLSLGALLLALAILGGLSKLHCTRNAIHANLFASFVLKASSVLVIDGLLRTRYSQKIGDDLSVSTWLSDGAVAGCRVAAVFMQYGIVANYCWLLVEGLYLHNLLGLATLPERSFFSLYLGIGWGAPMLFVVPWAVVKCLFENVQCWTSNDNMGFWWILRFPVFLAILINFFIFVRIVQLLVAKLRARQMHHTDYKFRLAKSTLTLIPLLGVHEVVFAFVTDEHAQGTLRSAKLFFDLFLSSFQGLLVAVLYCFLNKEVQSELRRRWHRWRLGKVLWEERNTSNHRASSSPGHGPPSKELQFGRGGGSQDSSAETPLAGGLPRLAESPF
# Description: (§1) One basic cAMP assays was performed, differing in the medium used for the assay, the “BSA-cAMP assay”:
# (§2) BSA-based assay medium: 0.1% bovine serum albumin (BSA) in
# (§3) In certain aspects, the assay can also be carried out in medium supplemented with serum albumin that corresponds to the receptor being tested, e.g., human serum albumin for testing cAMP activity at hGIPr or hGLP-1r, rat serum albumin for testing cAMP activity at rGIPr or rGLP-1r, and so on. […] All sample dilutions were made in duplicate.
# (§4) A frozen cryo-vial of cells expressing the receptor of interest was thawed rapidly in a water-bath, transferred to pre-warmed assay media and spun at 240×g for 5 minutes. Cells were re-suspended in assay buffer at an optimized concentration (e.g., hGLP-1r and hGIPr cells at 0.5×10^5 cells/ml).
# (§5) To this, 5 μL cell suspension was added and the plates incubated at room temperature for 30 minutes.
# (§6) cAMP levels were measured using a commercially available cAMP dynamic 2 HTRF kit (Cisbio, Cat #62AM4PEJ), following the two step protocol as per manufacturer's recommendations. In brief; anti-cAMP cryptate (donor fluorophore) and cAMP-d2 (acceptor fluorophore) were made up separately by diluting each 1/20 in conjugate & lysis buffer provided in the kit. 5 μL anti-cAMP cryptate was added to all wells of the assay plate, and 5 μL cAMP-d2 added to all wells except non-specific binding (NSB) wells, to which conjugate and lysis buffer was added. […] Data was transformed to % Delta F as described in manufacturer's guidelines and then transformed to percent activation of maximal native agonist response and analysed by 4-parameter logistic fit to determine EC50 values.
# (§7) We used unconstrained 4 parameter logistic fit of data, curve mid-point to determine EC50. This was tested on two occasions, not two batches.
# [2] = target: T7, human GLP-1 receptor (hGLP-1r) (Homo sapiens, UniProt P43220); assay: BSA-cAMP assay, cells expressing human GLP-1 receptor; conditions: Batch 1; BSA-cAMP assay; read-out: hGLP1r cAMP activity EC50
# T7 construct: expressed in transfected cells
# T7 sequence (P43220 24-463): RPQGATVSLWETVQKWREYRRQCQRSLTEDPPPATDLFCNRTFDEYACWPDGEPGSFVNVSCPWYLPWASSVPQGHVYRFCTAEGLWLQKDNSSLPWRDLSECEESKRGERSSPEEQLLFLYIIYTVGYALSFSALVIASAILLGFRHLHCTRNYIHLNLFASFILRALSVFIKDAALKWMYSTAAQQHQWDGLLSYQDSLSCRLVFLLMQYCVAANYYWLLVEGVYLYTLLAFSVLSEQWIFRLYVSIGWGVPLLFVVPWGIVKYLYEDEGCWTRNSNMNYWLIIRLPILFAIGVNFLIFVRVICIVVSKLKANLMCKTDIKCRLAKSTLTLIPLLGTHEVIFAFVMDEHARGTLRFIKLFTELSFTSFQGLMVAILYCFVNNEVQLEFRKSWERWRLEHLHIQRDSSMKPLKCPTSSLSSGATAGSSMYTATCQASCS
# Description: as §1, §2, §3, §4, §5, §6, §7
# rat GIP receptor (rGIPr) = target: T1, rat GIP receptor (rGIPr); assay: BSA-cAMP assay, cells expressing rat GIP receptor; conditions: Batch 1; BSA-cAMP assay; read-out: rGIPr cAMP activity EC50
# Description: as §1, §2, §3, §4, §5, §6, §7
# (§8) In order to be able to carry out in vivo studies in rodents, IP088 was tested for potency against the mouse receptors mGIPr and mGLP-1r as well as the rat receptors rGIPr and rGLP-1r, using cells expressing the respective receptors in the cAMP assay described above.
# [3] = target: T2, rat GLP-1 receptor (rGLP-1r); assay: BSA-cAMP assay, cells expressing rat GLP-1 receptor; conditions: Batch 1; BSA-cAMP assay; read-out: rGLP1r cAMP activity EC50
# Description: as §1, §2, §3, §4, §5, §6, §7, §8
# [4] = target: T3, mouse GIP receptor (mGIPr); assay: BSA-cAMP assay, cells expressing mouse GIP receptor; conditions: Batch 1; BSA-cAMP assay; read-out: mGIPr cAMP activity EC50
# Description: as §1, §2, §3, §4, §5, §6, §7, §8
# [5] = target: T4, mouse GLP-1 receptor (mGLP-1r); assay: BSA-cAMP assay, cells expressing mouse GLP-1 receptor; conditions: Batch 1; BSA-cAMP assay; read-out: mGLP1r cAMP activity EC50
# Description: as §1, §2, §3, §4, §5, §6, §7, §8
# [6] = target: T5, human GIP receptor (hGIPr); assay: BSA-cAMP assay, cells expressing human GIP receptor; conditions: Batch 1; BSA-cAMP assay; read-out: hGIPr cAMP activity EC50
# Description: For human GIPr, two different lines were used, shown as “hGIPr” and “hGIPr (C3)” in Table 11.
# as §1, §2, §3, §4, §5, §6, §7
EC50 [1],EC50 [2],EC50 (rat GIP receptor (rGIPr)),EC50 [3],EC50 [4],EC50 [5],EC50 [6],Molecule
12000 nM,0.31 nM,4.7 nM,0.058 nM,22 nM,1.9 nM,0.12 nM,IP301 (protein) YSEGTFTSDVSSYLEREAIDEFIAWLLKGGAAAGGSGSTASSGSGSATGGGGAATHTCPPC
280 nM,> 5460 nM,0.096 nM,13 nM,0.36 nM,> 5460 nM,0.024 nM,IP315 (protein) YSEGTFISDYSSYLERQAIDEFIAWLLKGGAAAGGSGSTASSGSGSATGGGGAATHTCPPC
> 10200 nM,6.1 nM,0.016 nM,14 nM,0.056 nM,100 nM,0.14 nM,IP366 (protein) YSEGTFTSDYRMLKERQAIDEFIAWLLKGGAAAGGSGSTASSGSGSATGGGGAATHTCPPC
> 10700 nM,0.87 nM,0.12 nM,1.5 nM,17 nM,11 nM,0.02 nM,IP365 (protein) YSEGMHTSDFSKLLERQAIDEFIAWLLKGGAAAGGSGSTASSGSGSATGGGGAATHTCPPC
900 nM,7.7 nM,1.3 nM,1.7 nM,15 nM,16 nM,0.086 nM,IP309 (protein) YSEGTFISDVSSYLERQAIDEFIAWLLKGGAAAGGSGSTASSGSGSATGGGGAATHTCPPC
> 2250 nM,17 nM,0.4 nM,,3.1 nM,100 nM,,IP378 (protein) YSEGTFTSLYRILLERQAIDEFIAWLLKGGAAAGGSGSTASSGSGSATGGGGAATHTCPPC
4100 nM,1.6 nM,5.2 nM,0.21 nM,31 nM,6.5 nM,0.091 nM,IP307 (protein) YSEGTFTSDVSSYMERQAIDEFIAWLLKQGAAAGGSGSTASSGSGSATGGGGAATHTCPPC
220 nM,0.1 nM,0.026 nM,0.015 nM,0.25 nM,0.25 nM,0.011 nM,IP306 (protein) YSEGTFTSDYSKLLERQAIDEFIAWLLKGGAAAGGSGSTASSGSGSATGGGGAATHTCPPC
> 17600 nM,,0.06 nM,0.23 nM,10 nM,10 nM,0.0095 nM,IP394 (protein) YSEGMHTSDLSKLLERQAIDEFIAWLLKGGAAAGGSGSTASSGSGSATGGGGAATHTCPPC
> 5310 nM,> 5310 nM,1.2 nM,5.4 nM,16 nM,> 1060 nM,0.048 nM,IP312 (protein) YSEGTFISDVSSYMERQAIDEFIAWLLKGGAAAGGSGSTASSGSGSATGGGGAATHTCPPC
610 nM,0.18 nM,0.02 nM,0.058 nM,0.5 nM,0.69 nM,0.0085 nM,IP364 (protein) YSEGTFTSDFSKLLERQAIDEFIAWLLKGGAAAGGSGSTASSGSGSATGGGGAATHTCPPC
3700 nM,0.35 nM,5.2 nM,0.038 nM,31 nM,1.4 nM,0.15 nM,IP310 (protein) YSEGTFTSDVSSYMERQAIDEFIAWLLKGKAAAGGSGSTASSGSGSATGGGGAATHTCPPC
